{"source": "patent US20250340646A1", "about": "(ELPIS BIOPHARMACEUTICALS, published 2025)", "binders": {"B1": {"name": "anti-PD-L1 IgG1 antibody EP205/EP206 (2019EP69-F03) (antibody, V domains shown)", "VH": "QVQLVQSGAEVKKPGSSVKVSCKASGGTFSSYAISWVRQAPGQGLEWMGGIIPIFGTANYAQKFQGRVTITADESTSTAYMELSSLRSEDTAVYYCARDKWYGSAWRGDYWGQGTLVTVSS", "VL": "QSVLTQPPSASGTPGQRVTISCSGSYSNIGSNFVNWYQQLPGTAPKLLIHFNNQRPSGVPDRFSGSRSGTSASLAISGLQSEDEADYFCSTWDDSLKGPIFGGGTKLTVLG", "notes": "also called EP206/EP205"}}, "key": {"[1]": {"biological_target": "PD-L1 on PD-L1 aAPC/CHOK1 cells (Promega J1250)", "assay": "cell-based or functional assay"}, "[2]": {"biological_target": "T1, human PD-L1-HIS tagged recombinant protein (human, UniProt Q9NZQ7 19-238)", "T1 construct": "also called hPD-L1-HIS; PD-L1 HIS tagged protein", "assay": "SPR, Protein A capture, PD-L1-HIS analyte"}, "[3]": {"biological_target": "T2, recombinant His-tagged human IL-2Rα (human, UniProt P01589 22-213, limits assumed)", "T2 construct": "also called IL-2Rα-HIS; CD25", "T2 sequence (looked up)": "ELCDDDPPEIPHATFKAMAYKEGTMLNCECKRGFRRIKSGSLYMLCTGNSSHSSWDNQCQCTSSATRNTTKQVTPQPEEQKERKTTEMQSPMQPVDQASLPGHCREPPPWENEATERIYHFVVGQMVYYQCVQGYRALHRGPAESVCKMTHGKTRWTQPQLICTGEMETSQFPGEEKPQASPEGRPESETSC", "assay": "ELISA, coated His-tagged human IL-2Rα, OD 450 nm", "method": "(§1) For monovalent IL-2 Fc-fusion proteins, recombinant His-tagged human IL-2Rα and IL-2Rβ were added in 25 μL of 1×PBS to wells of 384-well plate and incubated overnight at 4° C. to coat the plates. Plates were washed three times with 0.05% Tween20/1×PBS. Plates were blocked with 100 μL of SuperBlock for 1 hr at RT and then washed 3 times with 0.05% Tween20/1×PBS. IL-2 mutants were diluted in 0.05% Tween 20/1×PBS from 1000 nM to 0 nM and added to plates for 2 hrs at room temperature. Plates were then washed 6 times with 0.05% Tween20/1×PBS. Anti-HisTag-HRP was diluted 1:5000 in 0.05% Tween20/1×PBS and added to plates for 1 hr at RT. Plates were then washed 6 times with 0.05% Tween 20/1×PBS, and TMB was added to develop blue color. Reactions were stopped with 2N […] and light absorbance at 450 nm was read on a BioTek plate reader. Absorbance versus IL-2 concentration is graphed for human IL-2Rα and IL-2Rβ."}, "[4]": {"biological_target": "T3, PD-L1 biotinylated (PD-1/PD-L1 TR-FRET assay kit, BPS 72038) (Homo sapiens (Human), UniProt Q9NZQ7 19-238, biotinylated; site not stated)", "T3 construct": "Kit reagent", "assay": "HTRF competition, competitor PD-1-Eu", "method": "(§2) Briefly, 1× Immuno buffer 1 was made. […] For each well in 384-well plate, serial diluted scFvs and regents were added according to manufacturer's recommended volume. Samples were incubated at room temperature for 1.5 hours then the fluorescent intensity was read with Biotek Neo2 plate reader using manufacture's instrument setting for the assay."}, "[5]": {"biological_target": "PD-L1 on PD-L1 aAPC/CHOK1 cells (Promega J1250)", "assay": "cell-based or functional assay", "remark": "listed apart in the source"}, "[6]": {"biological_target": "T3, PD-L1 biotinylated (PD-1/PD-L1 TR-FRET …)", "assay": "HTRF competition, competitor PD-1-Eu", "method": "as §2", "remark": "listed apart in the source"}, "[7]": {"biological_target": "T4, full-length human PD-L1 on K562 cells (human, UniProt Q9NZQ7 19-290)", "T4 construct": "also called PD-L1/K562; cell surface human PD-L1", "assay": "FACS, PD-L1/K562 cells, anti-hFc Alexa Fluor 647", "method": "Cells were spun down at 1200 rpm for 5 minutes at 4° C. to remove primary antibodies. Cells were then washed once with 200 μL of full medium per well. […] Samples were spun down at 1200 rpm for 5 minutes at 4° C. and washed twice with 200 μL of 1×PBS per well. Reconstituted samples in 200 μL of 1×PBS and read on Attune NxT cytometer."}, "[8]": {"biological_target": "T3, PD-L1 biotinylated (PD-1/PD-L1 TR-FRET …)", "assay": "HTRF competition, competitor PD-1-Eu", "method": "as §2", "remark": "listed apart in the source"}, "[9]": {"biological_target": "T5, recombinant His-tagged human IL-2Rβ (human, UniProt P14784 27-240, limits assumed)", "T5 construct": "also called IL-2Rβ-HIS; IL-15Rβ-HIS", "T5 sequence (looked up)": "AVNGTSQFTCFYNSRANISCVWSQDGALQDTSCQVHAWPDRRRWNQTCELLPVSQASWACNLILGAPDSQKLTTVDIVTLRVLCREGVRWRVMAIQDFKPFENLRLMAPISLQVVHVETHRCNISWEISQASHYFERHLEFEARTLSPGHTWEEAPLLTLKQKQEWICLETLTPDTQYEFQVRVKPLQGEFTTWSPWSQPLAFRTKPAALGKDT", "assay": "ELISA, coated His-tagged human IL-2Rβ, OD 450 nm", "method": "as §1"}, "biotinylated PD-L1 [10]": {"biological_target": "T6, biotinylated PD-L1 (Homo sapiens (Human), UniProt Q9NZQ7 19-238, biotinylated; site not stated)", "assay": "ELISA as described in Example 7 (value equals Table 17)"}, "[11]": {"biological_target": "T1, human PD-L1-HIS tagged recombinant …", "assay": "SPR, IgG on Protein A, PD-L1-HIS analyte", "method": "The assay was run with Biacore T200 control software version 2.0. For each cycle, 1 μg/mL of anti-hPD-L1-IgG was captured for 60 seconds at flow rate of 10 μl/min on flow cell 2 in 1×HBSP buffer on Protein A sensor chip. […] The flow cells were then regenerated with Glycine pH 2 for 60 seconds at flow rate of 30 μl/min. […] The specific binding response unit was derived from subtraction of binding to reference flow cell 1 from antibody captured flow cell 2."}, "biotinylated PD-L1 [12]": {"biological_target": "T6, biotinylated PD-L1", "assay": "ELISA, anti-human Fc capture, biotinylated PD-L1", "method": "A 384 well plate was immobilized with anti-human Fc at final concentration of 2 μg/mL in 1×PBS in total volume of 25 μL per well. The plate was incubated overnight at 4° C. followed by blocking with 80 μL of superblock per well for 1 hour. […] In between each step, the plate was washed 3 times with 1×PBST in a plate washer. […] The plate was read at OD450 nm Biotek plate reader and the binding correlation was plotted with Prism 8.1 software."}, "[13]": {"biological_target": "PD-L1 on PD-L1 aAPC/CHOK1 cells (Promega J1250)", "assay": "cell-based or functional assay", "remark": "listed apart in the source"}, "[14]": {"biological_target": "T1, human PD-L1-HIS tagged recombinant …", "assay": "ELISA, coated PD-L1-HIS, anti-hFc HRP", "method": "The plate was incubated overnight at 4° C. followed by blocking with 80 μL of superblock per well for 1 hour. […] In between each step, the plate was washed 3 times with 1×PBST in a plate washer. The plate was then developed with 20 μL of TMB substrate for 5 min and stopped by adding 20 μL of 2N sulfuric acid. The plate was read at OD450 nm Biotek plate reader and then plotted in Prism 8.1 software."}}, "note": "Where two headings read alike, the source gives them in different places."}
{"binder": "B1", "values": [{"measurement": "NFAT reporter EC50", "setting": "[1]", "result": 0.549, "unit": "nM"}, {"measurement": "Kd", "setting": "[2]", "result": 0.363, "unit": "nM"}, {"measurement": "koff", "setting": "[2]", "result": 0.000347, "unit": "s⁻¹"}, {"measurement": "kon", "setting": "[2]", "result": 956000, "unit": "M⁻¹ s⁻¹"}, {"measurement": "binding result", "setting": "[3]", "result": "no binding (tested: LOG(IL-2(nM)) about 1.8 (about 70 nM))"}, {"measurement": "IC50", "setting": "[4]", "result": 128, "unit": "nM"}, {"measurement": "NFAT reporter EC50", "setting": "[5]", "result": 0.549, "unit": "nM"}, {"measurement": "IC50", "setting": "[6]", "result": 128, "unit": "nM"}, {"measurement": "EC50", "setting": "[7]", "result": 0.00668, "unit": "nM"}, {"measurement": "IC50", "setting": "[8]", "result": 128, "unit": "nM"}, {"measurement": "binding result", "setting": "[9]", "result": "no binding (tested: LOG(IL-2(nM)) about 1.8 (about 70 nM))"}, {"measurement": "EC50", "setting": "biotinylated PD-L1 [10]", "result": 0.164, "unit": "nM"}, {"measurement": "Kd", "setting": "[11]", "result": 0.363, "unit": "nM"}, {"measurement": "EC50", "setting": "biotinylated PD-L1 [12]", "result": 0.26, "unit": "nM"}, {"measurement": "Jurkat Reporter assay EC50", "setting": "[13]", "result": 0.55, "unit": "nM"}, {"measurement": "EC50", "setting": "[14]", "result": 0.164, "unit": "nM"}]}
